# Measurements published in PMC12299175 (Vaccines, 2025).
# Key:
# [1] = target: T1, synthetic peptide of stem helix (1141-1161) of SARS-CoV-2 WT S with biotin at C terminus (SARS-CoV-2, UniProt P0DTC2); test: BLI; […] (Gator Bio); antibody at 1 to 100 nM in 100 mM HEPES, 500 mM NaCl, 0.005% Tween20, 0.1% BSA; […]; conditions: both partners purified
# T1 construct: source: synthetic peptide
# [2] = target: T2, Myc-tagged S fragment of MERS-CoV (MERS-CoV, isolate of GenBank KT357812.1, UniProt A0A024E0Q9); test: Western blot; conditions: one partner purified
# T2 construct: source: 293FT cells, transiently transfected, in lysate (RIPA buffer)
# [3] = target: Myc-tagged S fragment of bat coronavirus (BtCoV)-HKU5 (BtCoV-HKU5 (GenBank AGP04943.1), UniProt S4X425); test: Western blot; conditions: one partner purified
# [4] = target: Myc-tagged S fragment of human coronavirus (HCoV)-OC43 (HCoV-OC43 (GenBank L14643.1), UniProt P36334); test: Western blot; conditions: one partner purified
# Sequence of Myc-tagged S fragment of human coronavirus (HCoV)-OC43 (P36334 whole entry, looked up, the tested form may be a part, one chain of several): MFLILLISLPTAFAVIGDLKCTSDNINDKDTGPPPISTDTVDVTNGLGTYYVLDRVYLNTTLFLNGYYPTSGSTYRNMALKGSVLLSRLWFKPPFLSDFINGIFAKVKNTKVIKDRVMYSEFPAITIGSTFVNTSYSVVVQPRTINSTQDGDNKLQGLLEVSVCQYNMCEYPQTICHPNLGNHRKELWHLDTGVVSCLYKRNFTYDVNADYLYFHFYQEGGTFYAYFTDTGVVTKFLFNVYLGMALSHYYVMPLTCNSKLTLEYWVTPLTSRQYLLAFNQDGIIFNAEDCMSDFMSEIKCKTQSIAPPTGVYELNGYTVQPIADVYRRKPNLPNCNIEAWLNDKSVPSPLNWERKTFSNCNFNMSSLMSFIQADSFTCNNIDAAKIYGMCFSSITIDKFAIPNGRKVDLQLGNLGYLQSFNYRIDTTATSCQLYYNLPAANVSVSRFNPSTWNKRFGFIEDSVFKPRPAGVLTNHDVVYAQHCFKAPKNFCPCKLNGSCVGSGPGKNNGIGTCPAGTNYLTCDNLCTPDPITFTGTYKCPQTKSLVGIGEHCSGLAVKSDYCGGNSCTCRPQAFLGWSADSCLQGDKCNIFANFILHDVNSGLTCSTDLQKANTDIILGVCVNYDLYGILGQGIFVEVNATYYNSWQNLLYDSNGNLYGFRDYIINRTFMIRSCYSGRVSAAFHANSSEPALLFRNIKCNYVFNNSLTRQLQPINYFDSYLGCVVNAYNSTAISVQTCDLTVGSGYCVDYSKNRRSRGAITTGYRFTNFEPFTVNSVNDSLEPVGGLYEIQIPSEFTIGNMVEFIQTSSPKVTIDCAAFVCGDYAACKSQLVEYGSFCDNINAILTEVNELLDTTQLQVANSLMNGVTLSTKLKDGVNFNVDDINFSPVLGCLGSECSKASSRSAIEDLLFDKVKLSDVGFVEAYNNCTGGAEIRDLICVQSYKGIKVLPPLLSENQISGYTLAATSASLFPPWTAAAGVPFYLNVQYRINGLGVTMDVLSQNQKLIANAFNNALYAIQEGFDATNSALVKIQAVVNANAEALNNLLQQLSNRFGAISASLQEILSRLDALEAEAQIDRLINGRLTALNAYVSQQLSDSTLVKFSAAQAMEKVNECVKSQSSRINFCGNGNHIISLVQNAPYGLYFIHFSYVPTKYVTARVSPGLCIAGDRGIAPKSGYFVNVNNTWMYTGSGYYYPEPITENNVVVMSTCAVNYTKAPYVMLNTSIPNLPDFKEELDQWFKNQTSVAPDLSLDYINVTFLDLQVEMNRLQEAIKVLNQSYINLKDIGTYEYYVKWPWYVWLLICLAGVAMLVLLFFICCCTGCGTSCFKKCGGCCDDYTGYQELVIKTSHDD
# [5] = target: Myc-tagged S fragment of mouse hepatitis virus (MHV) (Mouse hepatitis virus, ATCC VR-764 …, UniProt P11224); test: Western blot; conditions: one partner purified
# Sequence of Myc-tagged S fragment of mouse hepatitis virus (MHV) (P11224 whole entry, looked up, the tested form may be a part): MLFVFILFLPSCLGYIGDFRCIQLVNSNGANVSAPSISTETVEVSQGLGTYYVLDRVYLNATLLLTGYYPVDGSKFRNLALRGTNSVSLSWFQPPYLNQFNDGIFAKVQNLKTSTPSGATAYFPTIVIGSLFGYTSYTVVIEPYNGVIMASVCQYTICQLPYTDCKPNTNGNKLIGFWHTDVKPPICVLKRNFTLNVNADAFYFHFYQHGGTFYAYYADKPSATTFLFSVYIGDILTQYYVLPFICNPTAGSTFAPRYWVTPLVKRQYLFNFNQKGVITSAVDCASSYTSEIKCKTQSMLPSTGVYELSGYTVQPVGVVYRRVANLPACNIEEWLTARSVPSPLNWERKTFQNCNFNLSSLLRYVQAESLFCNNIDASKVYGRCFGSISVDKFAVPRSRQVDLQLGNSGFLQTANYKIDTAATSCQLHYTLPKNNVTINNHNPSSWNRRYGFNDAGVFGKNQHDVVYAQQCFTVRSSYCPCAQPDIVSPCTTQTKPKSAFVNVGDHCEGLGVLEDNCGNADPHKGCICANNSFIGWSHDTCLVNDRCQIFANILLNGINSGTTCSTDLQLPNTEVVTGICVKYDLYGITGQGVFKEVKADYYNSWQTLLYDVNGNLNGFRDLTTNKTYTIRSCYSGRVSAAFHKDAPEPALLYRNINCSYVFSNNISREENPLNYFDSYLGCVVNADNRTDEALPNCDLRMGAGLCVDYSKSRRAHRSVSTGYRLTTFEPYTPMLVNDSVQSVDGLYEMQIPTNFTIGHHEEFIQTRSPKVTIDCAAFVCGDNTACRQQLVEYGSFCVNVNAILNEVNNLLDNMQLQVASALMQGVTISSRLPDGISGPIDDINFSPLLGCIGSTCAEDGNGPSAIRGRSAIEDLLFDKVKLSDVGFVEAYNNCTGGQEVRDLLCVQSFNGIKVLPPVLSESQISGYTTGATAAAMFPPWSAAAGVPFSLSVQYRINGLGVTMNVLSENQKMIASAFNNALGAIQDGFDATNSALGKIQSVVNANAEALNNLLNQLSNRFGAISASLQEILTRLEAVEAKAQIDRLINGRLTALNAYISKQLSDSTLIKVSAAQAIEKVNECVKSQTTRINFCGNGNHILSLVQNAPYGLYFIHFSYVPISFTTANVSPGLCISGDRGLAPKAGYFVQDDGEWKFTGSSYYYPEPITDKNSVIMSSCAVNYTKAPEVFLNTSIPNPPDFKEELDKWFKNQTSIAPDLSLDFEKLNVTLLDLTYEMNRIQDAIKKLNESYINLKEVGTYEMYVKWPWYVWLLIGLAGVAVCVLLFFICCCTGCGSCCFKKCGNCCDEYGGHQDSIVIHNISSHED
binder,measurement,setting,value
"S2P6 recombinant mAb with human IgG1 constant region (antibody, V domains shown, also called mAb S2P6) VH: EVQLVQSGAEVKKPGASVKVSCKASGYTFTSQYMHWVRQAPGQGLEWIGIINPSGVHTSYAQKFQGRVTLTRDTSTSTLYMELSSLRSEDTAVYYCARGSPKGAFDYWGQGTLVTVSS VL: not shown",Kd,[1],< 1 pM
same,binding result,[2],binds
same,binding result,[3],binds
same,binding result,[4],binds
same,binding result,[5],binds
